Data set [1] concerns the target T1, FL-CXXC5 (human, UniProt Q7LFL8 1-322).
T1 sequence: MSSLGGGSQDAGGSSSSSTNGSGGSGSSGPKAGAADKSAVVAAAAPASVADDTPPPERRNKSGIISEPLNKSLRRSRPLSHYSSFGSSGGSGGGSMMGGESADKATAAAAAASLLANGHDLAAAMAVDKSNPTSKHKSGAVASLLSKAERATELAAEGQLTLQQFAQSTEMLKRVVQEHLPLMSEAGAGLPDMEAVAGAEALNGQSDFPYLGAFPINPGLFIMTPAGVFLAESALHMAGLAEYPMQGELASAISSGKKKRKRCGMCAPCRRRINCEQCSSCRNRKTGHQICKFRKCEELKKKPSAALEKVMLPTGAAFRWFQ
Description: ITC; ITC: 10 uM protein, 300 uM DNA, 25 C, VP-ITC, one-site fit; DNA annealed in 20 mM Tris pH 7.5, 150 mM NaCl; protein eluted in 20 mM Tris pH 7.5, 150 mM NaCl, 1. Particulars: protein: recombinant, tags: 6xHis removed by TEV (pET28a-MHL), blunt. (In ITC the heat of successive injections is recorded.)

Data set [2] addresses T2, CXXC-D (CXXC domain of CXXC5) (human, UniProt Q7LFL8 250-309).
T2 sequence: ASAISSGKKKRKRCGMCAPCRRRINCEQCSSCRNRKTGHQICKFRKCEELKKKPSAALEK
The data set is described as above. Particulars: protein: recombinant; tags: 6xHis removed by TEV (pET28a-MHL); blunt.

Data set [3] concerns the target T1, FL-CXXC5. Briefly: ITC; similar affinity to N1; ITC: 10 uM protein, 300 uM DNA, 25 C, VP-ITC, one-site fit; DNA annealed in 20 mM Tris pH 7.5, 150 mM NaCl; protein eluted in 20 mM Tris pH 7.5, 150 mM NaCl, 1. The settings on record: protein: recombinant; tags: 6xHis removed by TEV (pET28a-MHL); blunt; self-complementary.

The values that follow come from paper PMC7136269, “CXXC5 as an unmethylated CpG dinucleotide binding protein contributes to estrogen-mediated cellular proliferation”.

B1: CG DNA (dsDNA)
DNA 1: GTGATACCGGATCAGT
DNA 2: ACTGATCCGGTATCAC
With B1, the binding result (with FL-CXXC5 [1]; in data set [2]) was “binds” each time.

B2: mCG DNA (dsDNA)
DNA 1: GTGATACCGGATCAGT
DNA 2: ACTGATCCGGTATCAC
modifications: 5-methyl-C at position 8 (GTGATACmCGGATCAGT); lower strand presumably also methylated at its central CpG
For B2, the binding result in the data set with FL-CXXC5 [1] is recorded as “no binding”.

B3: AT DNA, distinct flanks (dsDNA)
DNA 1: GAGAGACATGTCTCTC
DNA 2: GAGAGACATGTCTCTC
Consider B3, for which the binding result with FL-CXXC5 [1] (self-complementary) is “no binding”.

B4: AT DNA (dsDNA)
DNA 1: GTGATACATGATCAGT
DNA 2: ACTGATCATGTATCAC
Turning to B4, the binding result with FL-CXXC5 [1] is reported as “no binding”.

B5: CG DNA, distinct flanks (dsDNA)
DNA 1: GAGAGACCGGTCTCTC
DNA 2: GAGAGACCGGTCTCTC
Regarding B5, in the data set with FL-CXXC5 [3], the binding result is on record as “binds”.

B6: mCG DNA, distinct flanks (dsDNA)
DNA 1: GAGAGACCGGTCTCTC
DNA 2: GAGAGACCGGTCTCTC
modifications: 5-methyl-C at position 8 (central mCG; self-complementary, so both strands)
As to B6, the binding result in the data set with FL-CXXC5 [1] (self-complementary) is on record as “no binding”.
